Test results reported in patent US20140017790A1, “CONTROL AGENT FOR CONTROLLING UNDIFFERENTIATED STATE AND USE THEREOF” (RIKEN, priority 2011, published 2014).

Assays:
Format in all cases: cell-based
mouse iPS cells [1] = test: quantitative RT-PCR of undifferentiated marker genes, CCL2 overexpressed in mouse iPS cells; settings: CCL2 overexpressed (Ccl2 expression vector), feeder free, 24 hours
Procedure: (§1) A PrimeScript RT-PCR Kit (trade name, TAKARA BIO INC.), an ABI 7500 Fast real time PCR system (trade name, Applied BioSystems), and a SYBR (registered trademark) Premix Ex Taq (trade name, TAKARA BIO INC.) were used in accordance with their protocols. PCR was carried out by conducting 40 cycles of treatment with a treatment at 94° C. for 5 second and at 62.5° C. for 20 seconds as 1 cycle. The expression level of each gene was calculated by normalizing the relative amount of mRNA in the gene to Gapdh mRNA according to the 2^−ΔΔ^CT method (Thomse R, Solvsten C A, Linnet T E, et al., Analysis of qPCR data by converting exponentially related Ct values into linearly related XO values. J Bioinform Comput Biol 2010: 8: 885-900.).
In the following manner, CCL2 was overexpressed in the mouse iPS cells, and the expression levels of undifferentiated marker genes were examined. The undifferentiated marker genes were the Ecat1 gene, Cripto gene, Oct3/4 gene, Zfp42 gene, Esg1 gene, Eras gene, Fgf4 gene, Dax1 gene, Nanog gene, Sox2 gene, Klf4 gene, cMyc gene, Tbx3 gene, and Eed gene.
A Ccl2 expression vector that overexpresses CCL2 was constructed. The CCL2 to be expressed was a mouse-derived protein having a full-length amino acid sequence of SEQ ID NO: 3. First, using a Gateway Technology (Invitrogen), a full-length cDNA (SEQ ID NO: 6) coding for the CCL2 was cloned into a pENTER/D-TOPO vector. The cloned sequence was confirmed, and thereafter, the full-length cDNA was inserted into an EF-α1 promoter-containing pEF-DEST51 vector (Invitrogen) using a Gateway LR Clonase II Enzyme Mix (Invitrogen), thus constructing the Ccl2 expression vector. The Ccl2 expression vector was purified using an Endotoxin free Plasmid maxi prep kit (Qiagen) in accordance with its protocol.
Next, the mouse iPS cells cultured under the feeder free conditions were seeded in a 12-well dish at a density of 3×10^5 cells/well. The amount of a medium to be added to the dish was set to 1 ml/well. Then, using 16 μl of a Lipofectamine 2000 (Invitrogen) and 4.8 μg of the Ccl2 expression vector per well, the mouse iPS cells were transfected with the Ccl2 expression vector. These mouse iPS cells were cultured for another 24 hours under feeder free conditions. Thereafter, total RNAs were extracted, and the expression levels of the undifferentiated marker genes were examined. The expressions of the undifferentiated marker genes were examined by the quantitative RT-PCR using the above-described primers. […] Then, the fold changes in expression level relative to the negative control were calculated.

mouse iPS cells [2] = test: quantitative RT-PCR of undifferentiated marker genes, recombinant CCL2 added to mouse iPS cells under feeder free conditions
Procedure: as §1
The medium of a negative control used was the above-described DMEM containing the above-described LIF. […]
Furthermore, after the culture of the mouse iPS cells, the expression level of the Tbx3 gene was determined in the same manner as in the item (1) of Example 1. Then, the fold change in expression level relative to the negative control was calculated. […]
The mouse iPS cells cultured under the feeder free conditions were cultured in the medium of the example and the medium of the comparative example, respectively. […] 24 hours after the culture, the expression levels of the undifferentiated marker genes were determined in the same manner as in the item (1) of Example 1. […]

STAT3 = test: Western blotting, phosphorylation of STAT3 in human iPS cells; settings: feeder conditions, 6 days, negative control (bFGF) = 1
Procedure: The human iPS cells were cultured under feeder conditions in the same manner as in Example 8, and the feeder cells were removed 6 days after the start of the culture. Then, in the same manner as in Example 3, the cultured human iPS cells were washed, suspended, homogenized, and centrifuged to collect the supernatant as a cell extract. Thereafter, a target protein was detected by Western blotting in the same manner as in Example 3, except that the above supernatant was used. Furthermore, as a negative control, the target protein was detected by carrying out the same procedures except that bFGF was added instead of the CCL2.
Then, the ratio of the phosphorylated STAT3 to the non-phosphorylated STAT3 (pSTAT3/STAT3) was determined. Assuming that the value of pSTAT3/STAT3 in the negative control was “1”, the relative value was calculated.

AKT = test: Western blotting, phosphorylation of AKT in human iPS cells; settings: feeder conditions, 6 days, versus negative control (bFGF)
Procedure: With respect to the supernatant prepared in the above item (1), the target protein detection was carried out in the same manner as in Example 4. Furthermore, as a negative control, the target protein detection was carried out in the same manner, except that bFGF was added instead of the CCL2.
Then, the ratio of the phosphorylated AKT to the non-phosphorylated AKT (p-AKT/AKT) was determined. Assuming that the value of the p-AKT/AKT in the negative control was “1”, the relative value was calculated. Also, the ratio of the KLF4 gene expression to the GAPDH gene expression (KLF4/GAPDH) was determined. Assuming that KLF4/GAPDH in the negative control was “1”, the relative value was calculated.

B1: CCL2: mouse recombinant CCL2 (MCP-1, #479-JE-010, R&D Systems); in Examples 1, 3, 4(1), 5 mouse CCL2 (SEQ ID NO: 3) overexpressed from Ccl2 expression vector (protein, listed as Mus musculus)
chain: MQVPVMLLGLLFTVAGWSIHVLAQPDAVNAPLTCCYSFTSKMIPMSRLESYKRITSSRCPKEAVVFVTKLKREVCADPKKEWVQTYIKNLDRNQMRSEPTTLFKTASALRSSAPLNVKLTRKSEANASTTFSTTTSSTSVGVTSVTVN
expression of the Klf4 gene, fold change relative to negative control (mouse iPS cells [1]): increased markedly | expression of the Nanog gene, fold change relative to negative control (mouse iPS cells [1]): increased markedly | expression of the Sox2 gene, fold change relative to negative control (mouse iPS cells [1]): increased markedly | expression of the Tbx3 gene, fold change relative to negative control (mouse iPS cells [1]): increased markedly | expression level of the Tbx3 gene (mouse iPS cells [2]; recombinant CCL2 500 ng/ml added to PI3K inhibitor 5 ng/ml + LIF 25 units/ml): further increase | expression of each undifferentiated marker gene (mouse iPS cells [2]; recombinant CCL2 2500 ng/ml, no LIF, feeder free, 24 hours, relative to LIF 1000 units/ml): increased markedly | ratio of phosphorylated STAT3 to non-phosphorylated STAT3 (pSTAT3/STAT3), relative value (STAT3): about 7.5 fold | phosphorylation of AKT (pAKT/AKT) (AKT): not promoted
